Results as given in patent publication US7799901B2, “Modulators of the function of FAS receptors and other proteins” (Yeda Research and Development Co. Ltd., priority 1995, dated 2010).

T1: MORT-1 (Homo sapiens, UniProt Q13158, G32V)
T1 sequence (Q13158 with tags, fused parts or gaps G32V): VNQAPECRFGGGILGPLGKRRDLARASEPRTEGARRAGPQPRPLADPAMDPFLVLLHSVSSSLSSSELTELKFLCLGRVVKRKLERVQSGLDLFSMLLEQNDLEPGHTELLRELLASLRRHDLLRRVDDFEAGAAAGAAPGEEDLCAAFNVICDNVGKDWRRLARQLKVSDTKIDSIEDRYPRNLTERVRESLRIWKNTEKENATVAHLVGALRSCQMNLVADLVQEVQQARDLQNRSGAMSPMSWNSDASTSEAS

T2: FAS-IC (Homo sapiens, UniProt P25445)
T2 construct: the FAS-IC extends-from amino acid residues 175-319 of the intact FAS-R; expressed in transfected cells; host or cells: SFY526 yeast
T2 sequence (P25445 191-335): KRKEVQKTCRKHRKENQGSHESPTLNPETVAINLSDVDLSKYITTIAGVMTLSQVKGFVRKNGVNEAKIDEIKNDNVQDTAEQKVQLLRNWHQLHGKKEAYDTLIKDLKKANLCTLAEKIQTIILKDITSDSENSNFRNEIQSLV

B1: MACHα2: MACH isoform, cDNA SEQ ID NO: 17, amino acid SEQ ID NO: 18 (protein)
chain: MDFSRNLYDIGEQLDSEDLASLKFLSLDYIPQRKQEPIKDALMLFQRLQEKRMLEESNLSFLKELLFRINRLDLLITYLNTRKEEMERELQTPGRAQISAYRVMLYQISEEVSRSELRSFKFLLQEEISKCKLDDDMNLLDIFIEMEKRVILGEGKLDILKRVCAQINKSLLKIINDYEEFSKGEELCGVMTISDSPREQDSESQTLDKVYQMKSKPRGYCLIINNHNFAKAREKVPKLHSIRDRNGTHLDAGALTTTFEELHFEIKPHDDCTVEQIYEILKIYQLMDHSNMDCFICCILSHGDKGIIYGTDGQEAPIYELTSQFTGLKCPSLAGKPKVFFIQACQGDNYQKGIPVETDSEEQPYLEMDLSSPQTRYIPDEADFLLGMATVNNCVSYRNPAEGTWYIQSLCQSLRERCPRGDDILTILTEVNYEVSNKDDKKNMGKQMPQPTFTLRKKLVFPSD
B2: fragment corresponding to residues 130-245: C-terminal part of MORT-1 containing its death domain homology region, amino acids 130-245 (protein)
chain: FEAGAAAGAAPGEEDLCAAFNVICDNVGKDWRRLARQLKVSDTKIDSIEDRYPRNLTERVRESLRIWKNTEKENATVAHLVGALRSCQMNLVADLVQEVQQARDLQNRSGAMSPMS

Experiments:
[1] = system: human embryonic kidney 293-EBNA cells; assay: Cell death on overexpression of MACH isoforms in 293-EBNA cells; format: cell-based; conditions: β-galactosidase-expressing cells with apoptopic morphology, 20 h after transfection
Procedure: To explore the involvement of MACH in cell-death induction, the effect of overexpression of various MACH isoforms on cell viability was examined. The test was performed by transfecting MACH expression vectors together with a β-galactosidase expression vector as a transfection marker into human embryonic kidney 293-EBNA cells and breast carcinoma MCF7 cells.
In brief, 293-EBNA cells, MCF7 human breast carcinoma cells and HeLa HtTA-1 cells were grown in Dulbecco's modified Eagle's minimal essential medium supplemented with 10% fetal calf serum, nonessential amino acids, 100 U/ml penicillin and 100 μg/ml streptomycin. Cell tissue culture dishes (5×10^5 293-EBNA cells, 3×10^5 s MCF7 cells or 3×10^5 HeLa cells in 6-cm dishes) were transiently transfected, using the calcium phosphate precipitation method, with the cDNAs of the indicated proteins together with the β-galactosidase expression vector. In the experiments presented in FIGS. 14A-D and 15, each dish was transfected with 3.5 μg of the indicated MACH construct and 1.5 μg of pSV-β-gal. In the experiments presented in FIGS. 16A-D and 17-19, each dish was transfected with 2.5 μg of the indicated MACH or MORT1 construct (or, as control, empty vector) and 1.5 μg of pSV-β-gal. The cells were rinsed 6 to 10 h after transfection. The 293-EBNA and MCF7 cells were incubated for a further 18 h without additional treatment. The HeLa cells were incubated for 26 h after transfection and-then for 5 h in the presence of either anti-Fas.APO1 antibody (CH11, 0.5 μg/ml) or TNF (100 ng/ml), together with cycloheximide (10 μg/ml). The extent of cell death at the end of the incubation periods was assessed by determination of β-galactosidase expression, as described by Kumar et al, 1994.
In particular, FIGS. 14A-D show the morphology of human embryonic kidney 293-EBNA cells transiently expressing the indicated MACH isoforms. The arrows (FIG. 14B) point to apoptopic cells. Photographs were taken 26 h after transfection. […] Data are from three independent experiments with the 293-EBNA cells and two independent experiments with the MCF7 cells.

[2] = system: FAS-R mediated cell death in HeLa cells; assay: Anti-FAS-R antibody (CH-11) induced death of HeLa cells co-expressing FAS-R, neutral-red uptake; format: cell-based; conditions: co-expression with human FAS-R in HeLa HtTA-1; CH-11 antibody plus 10 μg/ml cycloheximide
Text: In another set of experiments to analyze the region of the MORT-1 protein involved in the binding to the FAS-IC, the following proteins were expressed transiently in HeLa cells that contain a tetracycline-controlled transactivator (HtTA-1), using a tetracycline-controlled expression vector (pUHD10-3): Human FAS-R alone; Human FAS-R as well as the N-terminal part of MORT-1 (amino acids 1-117, the “MORT-1 head”); Human FAS-R as well as the C-terminal part of MORT-1, which contains its ‘death domain’ homology region (amino acids 130-245, the “MORT-1 DD”); FLAG-55.11 (amino acids 309-900 of protein 55.11 fused at the N-terminus to the FLAG octapeptide, the protein 55.11 being a p55-IC-specific binding protein. Twelve hours after transfection, the cells were trypsinized and re-seeded at a concentration of 30,000 cells/well. After 24 hrs further incubation, the cells were treated for 6 hrs with a monoclonal antibody against the extracellular domain of FAS-R (monoclonal antibody CH-11, Oncor, Gaithersburg, Md., USA) at various concentrations (0.001-10 μg/ml monoclonal antibody), in the presence of 10 μg/ml cycloheximide. Cell viability was then determined by the neutral-red uptake assay and the results were presented in terms of % viable cells as compared to cells that had been incubated with cycloheximide alone (in the absence of anti-FAS-R monoclonal antibody CH-11). […]

MORT-1 = target: T1, MORT-1; assay: Two-hybrid test (FIG. 1), binding to full-length MORT-1; design: expressed in transfected cells; host or cells: SFY526 yeast
Text: (§1) To isolate proteins interacting with the intracellular domain of the FAS-R, the yeast two-hybrid system was used (Fields and Song, 1989). […] In this system, the genes for the candidate interacting proteins are cloned into separate expression vectors. In one expression vector, the sequence of the one candidate protein is cloned in phase with the sequence of the GAL4 DNA-binding domain to generate a hybrid protein with the GAL4 DNA-binding-domain, and in the other vector, the sequence of the second candidate protein is cloned in phase with the sequence of the GAL4 activation domain to generate a hybrid protein with the GAL4-activation domain. The two hybrid vectors are then co-transformed into a yeast host strain having a lacZ or HIS3 reporter gene under the control of upstream GAL4 binding sites. Only those transformed host cells (cotransformants) in which the two hybrid proteins are expressed and are capable of interacting with each other, will be capable of expressing the reporter gene. In the case of the lacZ reporter gene, host cells expressing this gene will become blue in color when X-gal is added to the cultures.
(b) retransforming the plasmid DNA and original FAS-IC hybrid plasmid and control plasmids described in (a) into yeast host cells of strain SFY526 and determining the LACZ^+ activity (effectivity of β-gal formation, i.e., blue color formation).
In FIG. 1, there is depicted the interaction of the proteins encoded by the Gal4 DNA binding domain and activation-domain constructs (pGBT9 and pGAD-GH) within transfected SFY526 yeasts as assessed by β-galactosidase expression filter assay. The DNA-binding-domain constructs included four constructs of the human Fas-IC, four constructs of the mouse Fas-IC including two full-length constructs having […] or Ile to Ala replacement mutations at position 225 (I225N and I225A, respectively), and three MORT-1 constructs, all of which are shown schematically on the left hand side of FIG. 1. […]

FAS-IC = target: T2, FAS-IC; assay: Two-hybrid test (FIG. 1), binding of MORT-1 fragments to FAS-IC
Text: as §1, with “cultures. […]” for “cultures.”
In FIG. 1, there is depicted the interaction of the proteins encoded by the Gal4 DNA binding domain and activation-domain constructs (pGBT9 and pGAD-GH) within transfected SFY526 yeasts as assessed by β-galactosidase expression filter assay. […]

Molecule | cell death of transfected 293-EBNA cells [1] | effect on FAS-induced (FAS-R mediated) cell death [2] | binding to full-length MORT-1 in two-hybrid test (MORT-1) | binding to FAS-IC / FAS-R in two-hybrid test (FAS-IC)
B1 | massive cell death |  |  | 
B2 |  | strongly interferes | does not bind | binds
